Series [1] deals with the molecule itself. Put plainly: SEC-MALS; 0.5 ml at 1 mg/ml on Superdex 75 or Superdex 200 10/300GL in 20 mM HEPES, 150 mM NaCl, 50 mM L-Arg, 50 mM L-Glu, 0.5 mM TCEP, pH 7.9; free protein and (ICP4N) with IE3_19mer DNA. On the technique in general: Size exclusion chromatography separates by hydrodynamic size, large species first.
For series [2], the target named is T1, ICP4NdeltaIDR (ICP4deltaIDR) (Herpes simplex virus 1, UniProt P08392 288-487).
T1 sequence: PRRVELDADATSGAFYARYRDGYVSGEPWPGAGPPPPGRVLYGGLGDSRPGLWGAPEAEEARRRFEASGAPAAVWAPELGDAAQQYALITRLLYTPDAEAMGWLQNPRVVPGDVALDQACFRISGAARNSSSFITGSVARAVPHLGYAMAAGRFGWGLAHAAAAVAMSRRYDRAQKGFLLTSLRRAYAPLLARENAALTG
Put plainly: X-ray crystallography; 2.12 A; SPR: 20 mM HEPES, 200 mM NaCl, 2 mM MgCl2, 0.05% Tween-20, pH 7.4, 25 C; NMR: 20 mM MES, 50 mM NaCl, 50 mM L-Arg, 50 mM L-Glu, 1 mM TCEP, 2 mM MgCl2, pH 6.6, 25 C. The settings on record: protein: recombinant; tags: N-terminal Strep-tag, HRV3C-cleaved (removed); chain copies: 2; blunt.

Series [3] deals with T2, ICP4N (ICP4 DNA binding domain) (Herpes simplex virus 1, UniProt P08392 258-487).
T2 sequence: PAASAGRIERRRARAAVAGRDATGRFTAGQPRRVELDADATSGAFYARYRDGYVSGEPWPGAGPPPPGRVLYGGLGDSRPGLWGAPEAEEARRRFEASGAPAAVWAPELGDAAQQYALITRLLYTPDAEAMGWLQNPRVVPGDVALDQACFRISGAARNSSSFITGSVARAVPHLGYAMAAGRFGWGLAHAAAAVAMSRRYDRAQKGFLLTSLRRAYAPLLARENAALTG
Put plainly: X-ray crystallography; 2.28 A; SPR: 20 mM HEPES, 200 mM NaCl, 2 mM MgCl2, 0.05% Tween-20, pH 7.4, 25 C; NMR: 20 mM MES, 50 mM NaCl, 50 mM L-Arg, 50 mM L-Glu, 1 mM TCEP, 2 mM MgCl2, pH 6.6, 25 C. The settings on record: protein: recombinant; tags: N-terminal Strep-tag, HRV3C-cleaved (removed); chain copies: 2; blunt.

Series [4] addresses T2, ICP4N (ICP4 DNA binding domain). Kind of series: SPR; 2 mM Mg2+; nanomolar Kd, value only in Fig 5C; SPR: 20 mM HEPES, 200 mM NaCl, 2 mM MgCl2, 0.05% Tween-20, pH 7.4, 25 C; NMR: 20 mM MES, 50 mM NaCl, 50 mM L-Arg, 50 mM L-Glu, 1 mM TCEP, 2 mM MgCl2, pH 6.6, 25 C. The following applies: protein: recombinant; tags: N-terminal Strep-tag, HRV3C-cleaved (removed); chain copies: 2; label: 5' biotin on forward strand; blunt. (Surface plasmon resonance follows binding to a sensor surface in real time, without labels.)

B1: ICP4 DNA binding domain, residues 258–487 (ICP4N) (domain or fragment)
chain: T2 sequence
notes: gene synthesised, codon optimised for E. coli; Strep-tag removed with HRV3C protease; Homodimer by SEC-MALS, AUC and crystal structure; also called ICP4 DBD; source: E. coli T7 Express LysY, purified (Strep-Tactin, Superdex 75); not shown: Strep-tag, N-terminal, cleaved
Take B1: the stoichiometry N – broadly, a count of units in the complex or per binding partner – in series [1] is 2.

B2: IE3_12mer (dsDNA)
DNA 1: CCGATCGTCCAC
DNA 2: GTGGACGATCGG
As to B2, in series [2], the binding result was “binds”.

B3: IE3_19mer (dsDNA)
DNA 1: CCGATCGTCCACACGGAGC
DNA 2: GCTCCGTGTGGACGATCGG
Regarding B3, the binding result in series [3] is “binds”.

B4: truncated ICP4 DNA binding domain, residues 288–487 (ICP4NΔIDR) (domain or fragment)
chain: T1 sequence
notes: Strep-tag removed with HRV3C protease; also called ICP4ΔIDR; ICP4NdIDR; source: E. coli T7 Express LysY, purified (Strep-Tactin, Superdex 75); not shown: Strep-tag, N-terminal, cleaved
Turning to B4, in series [1], the “stoichiometry N” value is 2.

B5: IE3_19mer, biotinylated (dsDNA)
DNA 1: CCGATCGTCCACACGGAGC
DNA 2: GCTCCGTGTGGACGATCGG
In the case of B5, the binding result in series [4] was “binds”.

Source of the values: paper PMC5737704, “The herpes viral transcription factor ICP4 forms a novel DNA recognition complex” (Nucleic Acids Research, 2017).
